Substrate in data set [1]: CC(=O)NCC(=O)N1CCCC1C(=O)Nc1ccc2c(C(F)(F)F)c(CC(N)=O)c(=O)oc2c1
In words: Hydrolysis of C-terminal coumarin dipeptide substrates by DPP-4 (kinetic constants). It is filed as biochemical. The conditions noted are these: other: DPP-4, substrates with blocked N-termini, 23° C., pH 7.4, NC = no cleavage up to 1 mM substrate. How it is done:
(§1) The relative cleavage rates by FAP and several dipeptidases of N-blocked (8) and unblocked (7) Gly-Pro dipeptide substrates were measured.
(§2) The cleavage (hydrolysis) rates of various C-terminal coumarin dipeptide substrates 7-16 by FAP and DPP-4 were measured (Tables 4 and 5). The amino-terminus of the substrates was unblocked and the amino acids were varied in Table 4. The amino-terminus of the substrates was blocked and the amino acids were varied in Table 5. To extend the results obtained with the dipeptide substrate library, kinetic parameters were determined for cleavage of the unblocked dipeptide substrates by FAP (Table 4). The catalytic efficiency (kcat/Km) for substrate cleavage was greatest with Ile-Pro-AFC, followed by Ala-Pro-, Gly-Pro- and Phe-Pro-AFC, consistent with the dipeptide substrate library results (FIG. 5). […] Kinetic constants for cleavage of Ala-Pro-AFC and Gly-Pro-AFC by DPP-4 were determined (Table 4). The catalytic efficiency for Ala-Pro-AFC hydrolysis was greater than that for Gly-Pro-AFC, and consistent with the dipeptide library.
(§3) Protease Assays—Protease activity was monitored continuously using a SpectraMax M2 microplate reader (Molecular Devices Corp., Sunnyvale Calif.) in the kinetic mode. Assays were conducted at 23° C. in 50 mM Tris (pH 7.4), 100 mM NaCl, 1 mM EDTA. The excitation/emission wavelengths for the different fluorogenic substrates were 360/460 nm (AMC), 400/505 nm (AFC), 340/425 nm (MNA), 340/510 nm (EDANS), and 337/425 nm (Abs). Standard curves of the appropriate fluorescent product versus concentration were used to convert relative fluorescence units to nmol of product produced. Substrates in the X-Pro-AMC library were used in rate assays at 5 μM final concentration. […] The kinetic parameters were calculated from Michaelis-Menten plots (V0 versus [S]) with nonlinear regression analysis using GraphPad software. kcat values were calculated under the assumption that each protease was 100% active.
(§4) When saturating amounts of substrate could not be achieved, catalytic efficiencies (kcat/Km) were determined under pseudo-first order conditions ([S]<<the estimated Km) and fit to the following equation: Ln[St/S0]=−kobst, where St is the concentration of substrate remaining at time t, S0 is the initial substrate concentration and kobs is the apparent first order substrate cleavage constant equal to (kcat/Km) times ET, the total enzyme concentration (Copeland, R. (2000) Enzymes, A Practical Introduction to Structure, Mechanism, and Data Analysis, 2nd Ed., John Wiley and Sons, Inc, New York). The linear relationship of Ln[St/S0] versus time allows calculation of kcat/Km by dividing the slope of the plot by ET.

Substrate in data set [2]: NCC(=O)N1CCCC1C(=O)Nc1ccc2c(C(F)(F)F)c(CC(N)=O)c(=O)oc2c1
Described as above. It is filed as biochemical. Conditions: other: DPP-4, substrates with unblocked N-termini, 23° C., pH 7.4. As to the method: as §1, §2, §3, §4

B1: DPP-4 (Homo sapiens) (protein)
chain: SRKTYTLTDYLKNTYRLKLYSLRWISDHEYLYKQENNILVFNAEYGNSSVFLENSTFDEFGHSINDYSISPDGQFILLEYNYVKQWRHSYTASYDIYDLNKRQLITEERIPNNTQWVTWSPVGHKLAYVWNNDIYVKIEPNLPSYRITWTGKEDIIYNGITDWVYEEEVFSAYSALWWSPNGTFLAYAQFNDTEVPLIEYSFYSDESLQYPKTVRVPYPKAGAVNPTVKFFVVNTDSLSSVTNATSIQITAPASMLIGDHYLCDVTWATQERISLQWLRRIQNYSVMDICDYDESSGRWNCLVARQHIEMSTTGWVGRFRPSEPHFTLDGNSFYKIISNEEGYRHICYFQIDKKDCTFITKGTWEVIGIEALTSDYLYYISNEYKGMPGGRNLYKIQLSDYTKVTCLSCELNPERCQYYSVSFSKEAKYYQLRCSGPGLPLYTLHSSVNDKGLRVLEDNSALDKMLQNVQMPSKKLDFIILNETKFWYQMILPPHFDKSKKYPLLLDVYAGPCSQKADTVFRLNWATYLASTENIIVASFDGRGSGYQGDKIMHAINRRLGTFEVEDQIEAARQFSKMGFVDNKRIAIWGWSYGGYVTSMVLGSGSGVFKCGIAVAPVSRWEYYDSVYTERYMGLPTPEDNLDHYRNSTVMSRAENFKQVEYLLIHGTADDNVHFQQSAQISKALVDVGVDFQAMWYTDEDHGIASSTAHQHIYTHMSHFIKQCFSLP
notes: DPP-4 (amino acids 39-766); FLAG (N); made in house; host or cells: 293 cells (secreted, purified from serum-free conditioned media)
Consider B1, for which, in data set [1], the kcat is < 0.07 s⁻¹ and the kcat/Km was found to be 36 ± 3 M⁻¹ s⁻¹. Further, in data set [2], the Km came to 76 ± 10 µM, the kcat amounted to 121 ± 5 s⁻¹ and the kcat/Km came out at 1.6e+06 M⁻¹ s⁻¹.

A word on the kcat: it is the maximal rate divided by the concentration of active sites. As usually defined, the kcat/Km is the turnover number divided by the Michaelis constant. One may read the Km as the substrate concentration at which the rate is half of its maximum.

Values taken from patent US7399869B2, “Fibroblast activation protein inhibitor compounds and methods” (Genentech, Inc., priority 2005, dated 2008).
